Tests used:
Assay in all cases: NMR
Settings in all cases: 25 °C; Not stated for the titration samples (structure samples contained 45 mM NaCl, 1 mM EDTA, 1 mM EGTA); Phosphate buffer for pH 7.3 to 5.9; acetate buffer for pH 5.5 to 3.5; pH changed by buffer exchange; concentrations not given; Ca2+-free, ligand-free, folded (the protein starts to unfold at pH 3 or below); ~0.5 mM protein
His151 = His151 (UniProt position 178, ASGFKHVVPNE)
Glu38 = Glu38 (UniProt position 65, LKAGKEPGLQI)
His86 = His86 (UniProt position 113, LQYDLHYWLGN)
Glu97 = Glu97 (UniProt position 124, ECSQDESGAAA)
Asp110 = Asp110 (UniProt position 137, TVQLDDYLNGR)
Glu156 = Glu156 (UniProt position 183, HVVPNEVVVQR)
Asp84 = Asp84 (UniProt position 111, GNLQYDLHYWL)
Glu121 = Glu121 (UniProt position 148, AVQHREVQGFE)
His119 = His119 (UniProt position 146, GRAVQHREVQG)
Asp50 = Asp50 (UniProt position 77, RVEKFDLVPVP)
Asp66 = Asp66 (UniProt position 93, DFFTGDAYVIL)
Glu126 = Glu126 (UniProt position 153, EVQGFESATFL)
Asp61 = Asp61 (UniProt position 88, TNLYGDFFTGD)
Asp96 = Asp96 (UniProt position 123, NECSQDESGAA)
Glu92 = Glu92 (UniProt position 119, YWLGNECSQDE)
Asp109 = Asp109 (UniProt position 136, FTVQLDDYLNG)
Glu47 = Glu47 (UniProt position 74, QIWRVEKFDLV)
His29 = His29 (UniProt position 56, SMVVEHPEFLK)

Gelsolin fragment G1+ (domain 1 plus G1-G2 linker) (Homo sapiens (inferred; not stated explicitly in the article))
pKa (His151): 6.2
pKa (Glu38): 4.1
pKa (His86): 4.2
pKa (Glu97): <3.5
pKa (Asp110): 4.3
pKa (Glu156): 3.8
pKa (Asp84): <3.5
pKa (Glu121): <3.5
pKa (His119): 4.3
pKa (Asp50): 4.8
pKa (Asp66): 3.9
pKa (Glu126): <3.5
pKa (Asp61): 4.5
pKa (Asp96): <3.5
pKa (Glu92): 4.3
pKa (Asp109): 5.5
pKa (Glu47): <3.5
pKa (His29): 5.9

From paper PMC5368644
